One series deals with FoxO1 DBD S249E (human, UniProt Q12778 151-266, S249E). The series can be described thus: EMSA. For orientation: Mobility shift assays separate free from complexed probe on a gel.
Another series concerns the target FoxO1 DBD A207C (human, UniProt Q12778 151-266, A207C). The series can be described thus: crystal structure.
The next series deals with FoxO1 DBD S184C (human, UniProt Q12778 151-266, S184C). The series can be described thus: crystal structure.
Sequence of FoxO1 DBD S184C (Q12778 151-266 S184C): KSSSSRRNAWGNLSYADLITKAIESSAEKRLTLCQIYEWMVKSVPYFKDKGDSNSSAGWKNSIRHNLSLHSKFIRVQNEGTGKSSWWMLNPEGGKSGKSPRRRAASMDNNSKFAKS

Sequence of FoxO1 DBD S249E (Q12778 151-266 S249E): as the sequence (Q12778 151-266 S184C) above, with C34S, S99E counted along it
Sequence of FoxO1 DBD A207C (Q12778 151-266 A207C): as the sequence (Q12778 151-266 S184C) above, with C34S, A57C counted along it

B1: IRE (dsDNA)
DNA 1: TGGTTTGTTTTGCTTG
DNA 2: CAAGCAAAACAAACCA
B1: the binding result with FoxO1 DBD S249E, with FoxO1 DBD A207C and with FoxO1 DBD S184C was “binds” in each case.

B2: DBE2 (dsDNA)
DNA 1: TCTTGTTTACATTTTG
DNA 2: CAAAATGTAAACAAGA
Turning to B2, the binding result with FoxO1 DBD S249E is listed as “binds”.

These data come from publication PMC2597217.
